# Experimental data from patent US20190153111A1 (Novartis, published 2019).
# “And” between values parts separate entries of the source, which are not always exact repeats. Equal entries are not always repeated.
# B1: CFZ533 (antibody, human IgG1, kappa, N297A)
# heavy: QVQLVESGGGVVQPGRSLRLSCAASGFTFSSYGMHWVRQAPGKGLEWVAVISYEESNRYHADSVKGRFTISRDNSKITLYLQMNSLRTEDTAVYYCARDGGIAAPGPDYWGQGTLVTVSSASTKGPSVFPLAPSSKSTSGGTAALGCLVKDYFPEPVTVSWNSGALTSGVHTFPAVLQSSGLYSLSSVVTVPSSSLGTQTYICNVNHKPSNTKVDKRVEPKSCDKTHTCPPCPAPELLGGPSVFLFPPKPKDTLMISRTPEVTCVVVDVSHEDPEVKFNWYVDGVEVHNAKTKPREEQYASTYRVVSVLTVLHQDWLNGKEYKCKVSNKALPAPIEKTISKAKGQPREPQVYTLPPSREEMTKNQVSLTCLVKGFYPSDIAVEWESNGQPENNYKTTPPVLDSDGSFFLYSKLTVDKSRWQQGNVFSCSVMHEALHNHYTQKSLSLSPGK
# light: DIVMTQSPLSLTVTPGEPASISCRSSQSLLYSNGYNYLDWYLQKPGQSPQVLISLGSNRASGVPDRFSGSGSGTDFTLKISRVEAEDVGVYYCMQARQTPFTFGPGTKVDIRRTVAAPSVFIFPPSDEQLKSGTASVVCLLNNFYPREAKVQWKVDNALQSGNSQESVTEQDSKDSTYSLSSTLTLSKADYEKHKVYACEVTHQGLSSPVTKSFNRGEC
# Experiments:
# Experiment in all cases: cell-based or functional assay
# [1] = target: T1, human CD40 on cells (human, UniProt P25942 21-277)
# [2] = target: rhesus monkey CD40 on cells (rhesus, UniProt F6SNI1 21-278)
# [3] = target: T1, human CD40 on cells; remark: listed apart in the source
# [4] = target: cynomolgus monkey CD40 on cells (cynomolgus, UniProt G7PG38 21-278)
# [5] = target: T1, human CD40 on cells; remark: listed apart in the source
# T1 sequence (P25942 21-277 limits assumed): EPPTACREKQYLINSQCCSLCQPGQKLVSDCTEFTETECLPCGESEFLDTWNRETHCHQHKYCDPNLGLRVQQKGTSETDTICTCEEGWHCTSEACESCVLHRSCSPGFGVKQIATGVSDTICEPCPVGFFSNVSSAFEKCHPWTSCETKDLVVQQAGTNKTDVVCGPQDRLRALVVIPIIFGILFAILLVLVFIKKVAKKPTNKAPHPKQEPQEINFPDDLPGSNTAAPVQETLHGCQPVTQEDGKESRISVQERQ
binder,measurement,setting,value
B1,"IC50 (read off the curve): inhibition of rCD154-induced CD69 expression on CD20pos B cells, human whole blood",[1],~0.1 µg/mL
same,"Inhibition of rCD154-induced proliferation (IC50 PBMCs), rhesus",[2],0.026 µg/ml and 0.18 µM
same,"Inhibition of rCD154-induced proliferation (IC50 PBMCs), human",[3],0.017 µg/ml and 0.12 µM
same,"Inhibition of rCD154-induced proliferation (IC50 PBMCs), cynomolgus",[4],0.01 µg/ml and 0.07 µM
same,"IC50, inhibition of rCD154-induced TNF production by primary monocyte-derived dendritic cells",[5],0.04 µg/ml and 0.27 nM
same,"IC50, inhibition of rCD154-induced proliferation of human PBMCs",[5],0.12 nM
same,"IC50, inhibition of rCD154-induced proliferation of human whole blood cultures",[5],0.024 µg/ml and 0.16 nM
same,"IC50, inhibition of rCD154-induced proliferation of purified human tonsillar B cells",[5],0.071 µg/ml and 0.47 nM
